Assay results as given in the supplement of paper PMC10065799, “High-throughput profiling of sequence recognition by tyrosine kinases and SH2 domains using bacterial peptide display” (eLife, 2023).

Columns and labels:
[1] = test system: Fer (mouse); assay: phosphorylation enrichment, bacterial display (enrichment ratio); higher = better substrate or ligand; peptides without Tyr show the background
[2] = target: Fyn (UniProt P06241); assay: as above
[3] = target: EPHB1 (UniProt P54762); assay: as above
[4] = target: Hck (UniProt P08631); assay: as above
[5] = target: Fes (UniProt P07332); assay: as above
[6] = target: FGFR1 (UniProt P11362); assay: as above
[7] = target: EPHB2 (UniProt P29323); assay: as above
[8] = target: Jak2 (UniProt O60674); assay: as above
[9] = test system: c-Abl (mouse); assay: as above
[10] = test system: AncSZ; assay: as above
[11] = target: MERTK (UniProt Q12866); assay: as above
[12] = test system: c-Src; assay: as above
[13] = target: FGFR3 (UniProt P22607); assay: as above
[14] = target: Grb2 SH2 (UniProt P62993); assay: SH2 binding enrichment of the phosphorylated peptide, bacterial display (enrichment ratio); higher = better substrate or ligand; peptides without Tyr show the background
[15] = target: c-Src SH2; assay: as above
[16] = target: SHP2-C SH2; assay: as above
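For SH2 binding enrichment of the phosphorylated peptide, bacterial display in this document: peptide library displayed on the E. coli surface as eCPX fusions, selected cells deep-sequenced, score is each peptide's frequency after selection divided by its frequency in the input.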
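For phosphorylation enrichment, bacterial display in this document: 11-residue human phosphosite peptides and single-mutation variants displayed on the E. coli surface, counted by deep sequencing, each peptide's frequency after selection divided by its frequency in the unselected input library; frequency after pTyr selection over input frequency; kinase dosed for 20-30% of maximal phosphorylation in three min.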

EPHB2, sequence (P29323 whole entry, looked up): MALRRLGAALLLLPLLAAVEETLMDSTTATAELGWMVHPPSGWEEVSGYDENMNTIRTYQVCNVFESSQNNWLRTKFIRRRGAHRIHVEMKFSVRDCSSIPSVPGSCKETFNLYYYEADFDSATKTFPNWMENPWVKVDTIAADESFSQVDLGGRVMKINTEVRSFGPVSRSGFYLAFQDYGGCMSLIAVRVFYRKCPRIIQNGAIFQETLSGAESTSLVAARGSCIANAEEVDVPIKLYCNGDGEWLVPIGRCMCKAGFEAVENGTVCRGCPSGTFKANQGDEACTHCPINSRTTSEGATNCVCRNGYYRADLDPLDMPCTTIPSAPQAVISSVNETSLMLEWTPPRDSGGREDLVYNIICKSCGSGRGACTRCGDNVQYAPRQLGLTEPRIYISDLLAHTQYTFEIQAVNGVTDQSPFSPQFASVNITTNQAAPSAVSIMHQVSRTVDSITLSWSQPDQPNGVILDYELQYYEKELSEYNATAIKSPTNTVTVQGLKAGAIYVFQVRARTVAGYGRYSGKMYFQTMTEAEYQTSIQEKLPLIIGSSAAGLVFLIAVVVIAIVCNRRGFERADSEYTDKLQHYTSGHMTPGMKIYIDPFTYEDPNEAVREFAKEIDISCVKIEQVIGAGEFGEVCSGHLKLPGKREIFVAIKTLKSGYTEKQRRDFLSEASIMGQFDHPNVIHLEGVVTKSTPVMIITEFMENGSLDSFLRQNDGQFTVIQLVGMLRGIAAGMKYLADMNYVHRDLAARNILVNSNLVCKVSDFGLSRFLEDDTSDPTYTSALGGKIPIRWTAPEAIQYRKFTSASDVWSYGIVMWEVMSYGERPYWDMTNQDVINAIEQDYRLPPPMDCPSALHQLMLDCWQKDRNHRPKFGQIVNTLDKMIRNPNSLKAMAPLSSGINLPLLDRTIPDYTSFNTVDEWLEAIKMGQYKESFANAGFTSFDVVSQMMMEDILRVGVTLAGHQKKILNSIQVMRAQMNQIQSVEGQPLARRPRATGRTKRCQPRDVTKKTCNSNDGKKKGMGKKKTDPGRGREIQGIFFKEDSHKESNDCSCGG
EPHB1, sequence (P54762 whole entry, looked up): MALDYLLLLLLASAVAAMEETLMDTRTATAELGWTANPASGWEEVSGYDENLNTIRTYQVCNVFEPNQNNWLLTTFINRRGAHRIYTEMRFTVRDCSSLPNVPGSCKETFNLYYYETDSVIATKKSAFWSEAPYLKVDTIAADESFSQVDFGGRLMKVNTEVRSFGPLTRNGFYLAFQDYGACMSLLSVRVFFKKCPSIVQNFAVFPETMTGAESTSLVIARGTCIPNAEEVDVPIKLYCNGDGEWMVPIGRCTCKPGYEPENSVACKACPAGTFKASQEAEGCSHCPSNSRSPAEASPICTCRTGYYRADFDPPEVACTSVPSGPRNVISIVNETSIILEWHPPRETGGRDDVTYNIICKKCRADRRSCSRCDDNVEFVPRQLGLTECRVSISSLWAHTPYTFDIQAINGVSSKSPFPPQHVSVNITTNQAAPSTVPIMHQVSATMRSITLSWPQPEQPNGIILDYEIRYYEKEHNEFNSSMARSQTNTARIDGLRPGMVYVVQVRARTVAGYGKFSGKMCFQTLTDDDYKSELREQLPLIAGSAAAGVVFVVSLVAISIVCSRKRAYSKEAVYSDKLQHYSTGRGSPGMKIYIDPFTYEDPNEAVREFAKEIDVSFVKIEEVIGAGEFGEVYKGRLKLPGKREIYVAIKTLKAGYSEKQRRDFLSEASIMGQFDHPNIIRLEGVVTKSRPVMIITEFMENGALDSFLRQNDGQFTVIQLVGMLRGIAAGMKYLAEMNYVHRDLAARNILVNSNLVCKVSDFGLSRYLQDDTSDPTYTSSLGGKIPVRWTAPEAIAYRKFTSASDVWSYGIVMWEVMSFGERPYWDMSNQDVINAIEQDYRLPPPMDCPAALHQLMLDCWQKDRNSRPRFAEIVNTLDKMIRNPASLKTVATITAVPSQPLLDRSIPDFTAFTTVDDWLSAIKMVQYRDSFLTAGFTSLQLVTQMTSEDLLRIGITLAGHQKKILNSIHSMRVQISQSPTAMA
FGFR3, sequence (P22607 whole entry, looked up): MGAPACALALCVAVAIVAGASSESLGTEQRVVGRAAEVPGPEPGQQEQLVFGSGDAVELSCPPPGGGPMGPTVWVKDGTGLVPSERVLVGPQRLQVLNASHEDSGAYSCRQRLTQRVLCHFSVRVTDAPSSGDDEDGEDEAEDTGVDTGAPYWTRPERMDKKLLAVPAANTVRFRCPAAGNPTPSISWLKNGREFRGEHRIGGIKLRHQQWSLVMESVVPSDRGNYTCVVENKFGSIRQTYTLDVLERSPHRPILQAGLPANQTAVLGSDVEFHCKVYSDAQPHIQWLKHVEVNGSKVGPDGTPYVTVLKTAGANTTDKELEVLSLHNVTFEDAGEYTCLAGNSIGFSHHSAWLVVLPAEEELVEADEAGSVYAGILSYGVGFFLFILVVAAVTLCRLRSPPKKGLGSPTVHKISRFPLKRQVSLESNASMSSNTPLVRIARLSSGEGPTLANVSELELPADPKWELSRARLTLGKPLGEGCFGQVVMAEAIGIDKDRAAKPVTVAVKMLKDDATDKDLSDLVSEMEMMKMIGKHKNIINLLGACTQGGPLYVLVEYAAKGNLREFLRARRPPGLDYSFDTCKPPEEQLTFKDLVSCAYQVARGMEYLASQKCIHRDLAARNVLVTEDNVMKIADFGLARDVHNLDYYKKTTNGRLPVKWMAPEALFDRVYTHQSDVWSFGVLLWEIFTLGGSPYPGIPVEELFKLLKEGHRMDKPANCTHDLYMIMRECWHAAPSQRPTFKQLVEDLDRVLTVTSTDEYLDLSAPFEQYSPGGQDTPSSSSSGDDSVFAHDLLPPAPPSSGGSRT
Hck, sequence (P08631 whole entry, looked up): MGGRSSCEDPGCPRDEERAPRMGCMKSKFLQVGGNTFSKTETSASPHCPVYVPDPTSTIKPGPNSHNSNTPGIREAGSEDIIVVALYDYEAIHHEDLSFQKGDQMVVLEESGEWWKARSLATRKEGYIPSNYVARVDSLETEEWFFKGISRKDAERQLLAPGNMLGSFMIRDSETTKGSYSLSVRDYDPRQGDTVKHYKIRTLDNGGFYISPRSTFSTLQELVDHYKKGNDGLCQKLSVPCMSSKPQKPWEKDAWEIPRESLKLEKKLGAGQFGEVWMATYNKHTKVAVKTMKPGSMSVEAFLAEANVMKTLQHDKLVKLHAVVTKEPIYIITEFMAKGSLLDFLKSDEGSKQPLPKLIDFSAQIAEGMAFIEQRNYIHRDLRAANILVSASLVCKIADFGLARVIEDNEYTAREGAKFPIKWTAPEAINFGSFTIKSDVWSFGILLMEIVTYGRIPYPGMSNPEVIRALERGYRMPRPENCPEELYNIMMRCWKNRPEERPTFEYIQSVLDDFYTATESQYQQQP
Fes, sequence (P07332 whole entry, looked up): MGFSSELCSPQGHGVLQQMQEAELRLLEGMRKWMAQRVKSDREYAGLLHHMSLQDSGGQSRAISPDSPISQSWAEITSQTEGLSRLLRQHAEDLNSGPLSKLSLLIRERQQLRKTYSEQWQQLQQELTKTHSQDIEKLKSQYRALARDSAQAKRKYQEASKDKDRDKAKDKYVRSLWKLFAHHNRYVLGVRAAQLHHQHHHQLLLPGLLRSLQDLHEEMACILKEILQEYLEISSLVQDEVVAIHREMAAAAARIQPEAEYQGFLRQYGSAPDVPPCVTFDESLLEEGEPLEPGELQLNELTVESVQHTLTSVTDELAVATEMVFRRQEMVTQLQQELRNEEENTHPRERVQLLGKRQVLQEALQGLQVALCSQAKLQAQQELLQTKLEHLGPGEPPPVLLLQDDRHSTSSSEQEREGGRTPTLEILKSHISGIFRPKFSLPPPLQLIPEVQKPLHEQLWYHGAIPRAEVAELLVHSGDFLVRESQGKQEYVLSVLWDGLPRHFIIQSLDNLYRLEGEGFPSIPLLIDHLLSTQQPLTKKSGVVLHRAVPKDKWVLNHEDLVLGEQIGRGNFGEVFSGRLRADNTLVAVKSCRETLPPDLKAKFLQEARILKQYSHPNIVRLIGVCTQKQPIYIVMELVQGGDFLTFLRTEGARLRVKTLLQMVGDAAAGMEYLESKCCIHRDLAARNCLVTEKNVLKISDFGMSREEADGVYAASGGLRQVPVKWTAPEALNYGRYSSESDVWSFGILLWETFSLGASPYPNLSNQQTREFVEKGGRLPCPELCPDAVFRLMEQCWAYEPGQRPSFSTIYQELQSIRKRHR
Fyn, sequence (P06241 whole entry, looked up): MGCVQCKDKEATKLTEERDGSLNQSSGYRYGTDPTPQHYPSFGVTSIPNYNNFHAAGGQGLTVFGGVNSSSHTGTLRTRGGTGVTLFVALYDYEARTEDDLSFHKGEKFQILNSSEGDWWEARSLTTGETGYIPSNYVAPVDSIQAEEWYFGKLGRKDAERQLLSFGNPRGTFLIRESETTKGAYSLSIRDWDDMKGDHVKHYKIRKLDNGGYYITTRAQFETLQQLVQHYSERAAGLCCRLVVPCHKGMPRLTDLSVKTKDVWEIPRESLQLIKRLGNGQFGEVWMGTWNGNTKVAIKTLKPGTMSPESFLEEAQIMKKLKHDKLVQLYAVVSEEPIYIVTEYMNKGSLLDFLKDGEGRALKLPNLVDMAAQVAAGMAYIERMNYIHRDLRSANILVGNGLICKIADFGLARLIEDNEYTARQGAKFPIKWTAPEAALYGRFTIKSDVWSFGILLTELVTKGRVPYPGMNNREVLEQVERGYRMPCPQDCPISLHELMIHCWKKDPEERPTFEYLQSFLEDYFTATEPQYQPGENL

SH2 binding enrichment [14]	SH2 binding enrichment [15]	SH2 binding enrichment [16]	Sequence	phosphorylation enrichment [1]	phosphorylation enrichment [2]	phosphorylation enrichment [3]	phosphorylation enrichment [4]	phosphorylation enrichment [5]	phosphorylation enrichment [6]	phosphorylation enrichment [7]	phosphorylation enrichment [8]	phosphorylation enrichment [9]	phosphorylation enrichment [10]	phosphorylation enrichment [11]	phosphorylation enrichment [12]	phosphorylation enrichment [13]
0.707	0.442	0.69	INNKMYDPKMN [ENPP1_Y280_D276N]	0.482	0.397	0.44	0.436	0.609	0.389	0.432	0.556	0.473	0.535	0.354	0.449	0.491
0.847	0.461	0.722	DAVKHYMQFRK [CNGA2_Y395]	0.366	0.591	0.359	0.555	0.558	0.344	0.363	0.44	0.54	0.46	0.397	0.441	0.427
0.885	0.409	0.728	SFSGEYGSGGG [ZG16_Y30_G32S_YF]	0.46	0.43	0.34	0.496	0.658	0.423	0.454	0.563	0.564	0.556	0.327	0.512	0.432
0.835	0.516	0.659	MSRDVYSTDFF [NTRK2_Y702_YF]	0.486	2.65	0.756	1.28	0.732	1.06	0.774	0.728	0.568	0.691	5.05	2.73	0.718
0.583	0.57	0.66	FVSIVCNDSGE [TSC2_Y1650_Y1650C]	0.613	0.476	0.644	0.537	1.21	0.534	0.646	1.18	0.767	1.12	0.464	0.478	0.921
0.878	0.51	0.599	LGPSDYFGEIA [PRKAR1A_Y323]	0.579	0.705	0.696	0.602	1.14	1.39	0.727	1.08	0.746	1.76	0.605	0.68	1.12
0.711	10.3	2.78	TTPYNYSYIFK [RAB14_Y8_A4T]	0.97	0.593	9.01	0.861	0.658	1.24	2.71	0.655	0.706	0.895	5.37	0.712	0.893
0.773	0.571	0.573	ALIKAYDKAVA [SMN1_Y43]	0.282	0.458	0.546	0.29	0.578	0.444	0.626	0.532	0.461	0.563	0.491	0.353	0.526
0.82	0.637	0.724	AKAFIYASHIV [ZNF573_Y229_G224A]	1.57	1	0.7	0.842	1.08	0.561	0.771	0.908	1.44	0.962	0.501	1.53	0.965
0.883	5.67	0.661	AGADGYDFLAP [FOXL2_Y186_G187D_YF]	0.598	0.452	0.554	0.79	1.17	0.543	0.645	1.03	0.785	0.984	0.708	0.555	0.744
1	0.62	0.723	FTHSDYQFSQR [PKP2_Y166_YF]	0.594	0.63	0.435	0.508	0.764	0.458	0.538	0.589	0.619	0.828	0.383	0.455	0.646
0.815	0.632	0.69	VQVAFYTVMMN [SPATA17_Y84_M86V_YF]	0.677	0.567	1.17	0.605	1.44	0.643	0.737	1.36	1.07	1.18	1.84	0.71	0.959
0.66	0.299	0.582	ETLLFYGCRRS [POR_Y564_YF]	0.465	0.43	0.468	0.463	0.675	0.621	0.458	0.659	0.82	0.749	0.424	0.563	0.445
0.828	0.403	0.709	EGDGVYTLNNE [HP_Y125]	0.658	6.33	0.602	3.07	1.16	0.595	0.633	0.934	0.817	1.26	0.509	4.26	0.822
1.85	0.793	1.39	ALVFLSFCIIF [SIGLEC12_Y494_Y494S]	0.39	0.496	0.329	0.466	0.865	0.45	0.489	0.871	0.974	1.05	0.449	0.439	0.603
0.673	0.607	0.585	DQIDTYELSGG [DNM1_Y354]	0.479	1.29	0.423	0.752	1.12	0.54	0.735	0.866	0.616	1.38	0.481	1.28	0.695
0.79	0.395	0.651	GHNDVYISKHV [GRIN2A_Y1423_E1426K]	0.313	0.423	0.254	0.412	0.536	0.323	0.333	0.391	0.376	0.373	0.347	0.352	0.364
0.812	0.534	0.707	RENGPYFASFP [GDAP2_Y487_T489A_YF]	0.627	0.568	0.443	0.432	0.924	0.889	0.534	1.27	0.893	1.17	0.565	1.27	0.891
0.889	0.433	0.555	DVRQEYPGMIL [PLXND1_Y616]	0.394	0.41	0.413	0.497	0.949	0.455	0.517	0.76	0.669	0.675	0.487	0.403	0.588
0.747	0.605	0.66	DPLLTYRFPPN [LMNA_Y481_K486N]	0.472	0.51	0.446	0.503	0.751	0.766	0.455	0.768	0.649	0.882	0.497	0.65	0.861
1.38	1.32	1.17	SKKVRYVVSKA [BARD1_Y156]	0.36	0.366	0.309	0.372	0.569	0.292	0.334	0.482	0.538	0.474	0.312	0.341	0.402
0.885	0.53	0.78	FTRNYYVRAVL [CYBA_Y88]	0.526	0.511	0.622	0.566	1.11	0.629	0.609	1.06	0.976	1.19	0.506	0.468	0.685
0.847	0.443	0.63	KTNVSYFGALD [CACNB4_Y103_C104F]	0.464	0.554	0.438	0.484	0.848	0.509	0.43	0.653	0.59	0.789	0.426	0.438	0.634
0.787	0.663	0.491	RNDQVYQPLRD [CD3D_Y149]	0.575	5.01	1.26	10.9	0.7	1.17	1.18	0.673	0.728	0.875	1.26	4.45	0.927
0.831	0.631	1.36	FFFDLYGGEKF [PTPN11_Y66_D61Y_YF]	0.418	0.66	0.53	0.981	0.979	0.415	0.418	0.993	0.665	0.923	0.371	1.15	0.534
0.705	0.476	0.578	GVRLFYRVRES [RB1_Y454_M457R_YF]	0.461	0.417	0.471	0.375	1.16	0.513	0.529	1.05	0.976	1.25	0.383	0.349	0.65
0.668	0.464	0.964	QRASDYFSQQM [GBP6_Y333_A331S_YF]	0.667	0.662	1.56	0.866	1.49	0.684	0.854	1.02	1.28	1.29	0.711	0.632	1.39
0.838	0.442	0.529	RRVLVYGDRGA [QDPR_Y16_G18D]	0.424	0.542	0.34	0.525	0.539	0.413	0.322	0.485	0.445	0.585	0.48	0.573	0.549

Sequence	SH2 binding enrichment [14]	SH2 binding enrichment [15]	SH2 binding enrichment [16]	phosphorylation enrichment [1]	phosphorylation enrichment [2]	phosphorylation enrichment [3]	phosphorylation enrichment [4]	phosphorylation enrichment [5]	phosphorylation enrichment [6]	phosphorylation enrichment [7]	phosphorylation enrichment [8]	phosphorylation enrichment [9]	phosphorylation enrichment [10]	phosphorylation enrichment [11]	phosphorylation enrichment [12]	phosphorylation enrichment [13]
MENFIYESMRY [CYP19A1_Y361]	0.819	0.627	0.553	13.1	8.43	5.46	6.76	3.6	0.569	3.32	0.839	1.25	1.23	2.31	6.18	0.728
